Broadly, the EC50 is the concentration giving half of the maximal effect. For orientation: EC50 (read off the curve) means the concentration needed to bring the measured effect to its halfway point. As a reminder, the Kd is the free concentration of one partner at which half of the binding sites on the other are occupied at equilibrium, for simple one-to-one binding.

In test [1] the target is T1, human CCR7 (human, UniProt P32248 25-378).
T1 construct: The assay field tells which; also called hCCR7; NIH3T3.hCCR7
T1 sequence: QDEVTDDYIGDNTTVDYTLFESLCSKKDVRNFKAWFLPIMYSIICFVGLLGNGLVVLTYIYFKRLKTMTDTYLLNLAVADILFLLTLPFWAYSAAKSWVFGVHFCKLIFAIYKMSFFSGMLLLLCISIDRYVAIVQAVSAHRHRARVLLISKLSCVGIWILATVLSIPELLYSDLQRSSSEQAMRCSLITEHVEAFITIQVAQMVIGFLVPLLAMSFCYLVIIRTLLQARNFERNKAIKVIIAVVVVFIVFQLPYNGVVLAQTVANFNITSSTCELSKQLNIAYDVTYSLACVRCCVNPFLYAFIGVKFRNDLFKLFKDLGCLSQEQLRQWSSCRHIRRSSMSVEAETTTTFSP
Description: FACS titration, human CD4+ T cells (receptor density <2,000).

Test [2] deals with T1, human CCR7. Description: FACS titration, DEL cancer cells (receptor density ~100,000).
In test [3] the target is T1, human CCR7. Description: cell-based or functional assay.
Test [4] deals with T2, recombinant hCCR7 (Origene #TP306614) (human, UniProt P32248 25-378, limits assumed).
T2 construct: Bought protein coated on ELISA plates; also called recombinant CCR7
T2 sequence (looked up): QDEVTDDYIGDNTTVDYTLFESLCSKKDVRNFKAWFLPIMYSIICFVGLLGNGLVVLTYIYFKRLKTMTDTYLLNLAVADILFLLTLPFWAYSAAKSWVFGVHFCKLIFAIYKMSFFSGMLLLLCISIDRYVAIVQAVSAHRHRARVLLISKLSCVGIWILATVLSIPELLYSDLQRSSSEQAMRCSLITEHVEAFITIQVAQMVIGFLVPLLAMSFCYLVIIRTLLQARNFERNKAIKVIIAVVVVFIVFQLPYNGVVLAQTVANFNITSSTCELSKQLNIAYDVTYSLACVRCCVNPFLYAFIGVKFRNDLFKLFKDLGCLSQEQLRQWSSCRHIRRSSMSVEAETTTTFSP
Description: ELISA on plate-coated recombinant hCCR7, antibody titrated, anti-hFc-HRP detection, OD 650 nm.

The target of test [5] is T2, recombinant hCCR7 (Origene #TP306614). Description: ELISA, recombinant CCR7 coated at 3.5 ug/ml, antibody titrated.
Test [6] addresses T1, human CCR7. Description: FACS titration, NIH3T3.hCCR7 cells (receptor density >1,000,000).
Test [7] has as its target T1, human CCR7. The experiment in a line: FACS titration, DEL cells (CCR7 receptor levels >=100,000).
Test [8] addresses T1, human CCR7. Description: FACS binding on CCR7 expressing cells, against the unconjugated antibody. (In flow cytometry, cells or beads pass a laser one at a time.)
Test [9] has as its target T1, human CCR7. The experiment in a line: cell-based or functional assay. This is another data set of the same source.
The next test addresses T3, CCR6 (UniProt P51684 1-374, limits assumed).
T3 construct: whole, on cells; also called PF382 cells (CCR7-/CCR9+/CCR6+)
T3 sequence (looked up): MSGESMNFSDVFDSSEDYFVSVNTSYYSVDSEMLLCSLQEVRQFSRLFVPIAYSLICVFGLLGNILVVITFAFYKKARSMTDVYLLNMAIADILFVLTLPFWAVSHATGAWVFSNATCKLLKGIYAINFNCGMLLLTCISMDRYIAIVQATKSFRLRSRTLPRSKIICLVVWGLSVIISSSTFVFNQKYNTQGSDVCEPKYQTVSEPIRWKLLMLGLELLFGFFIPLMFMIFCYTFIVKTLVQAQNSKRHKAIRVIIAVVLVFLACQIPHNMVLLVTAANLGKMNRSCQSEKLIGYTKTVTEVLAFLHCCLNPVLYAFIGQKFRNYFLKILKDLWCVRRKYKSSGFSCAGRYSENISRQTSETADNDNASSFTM
Description: FACS on PF382 cells (CCR7-/CCR9+/CCR6+).

The next test concerns the target T4, CCR9 (UniProt P51686 1-369, limits assumed).
T4 construct: whole, on cells; also called PF382 cells (CCR7-/CCR9+/CCR6+)
T4 sequence (looked up): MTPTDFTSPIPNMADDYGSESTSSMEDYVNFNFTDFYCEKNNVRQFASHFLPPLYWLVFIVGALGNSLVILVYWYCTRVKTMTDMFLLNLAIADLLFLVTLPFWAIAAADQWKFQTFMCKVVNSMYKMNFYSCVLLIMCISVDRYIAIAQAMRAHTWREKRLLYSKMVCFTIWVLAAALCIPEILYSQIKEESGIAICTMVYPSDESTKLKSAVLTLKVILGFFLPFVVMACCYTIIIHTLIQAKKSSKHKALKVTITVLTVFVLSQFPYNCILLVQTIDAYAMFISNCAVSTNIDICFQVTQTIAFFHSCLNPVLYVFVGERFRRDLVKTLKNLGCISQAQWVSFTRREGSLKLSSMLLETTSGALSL
The experiment in a line: FACS on PF382 cells (CCR7-/CCR9+/CCR6+).

Test [10] concerns the target T1, human CCR7. Description: ELISA on CCR7-expressing VLPs, pH 5.8 buffer. On the technique in general: An ELISA detects its analyte on a solid surface through an enzyme-linked reagent.
The next test concerns the target T5, CCR8 (UniProt P51685 1-355, limits assumed).
T5 construct: whole, on cells; also called CHO-CCR8
Description: FACS on CHO-CCR8 cells.

The next test addresses T6, CXCR4 (UniProt P61073 1-352, limits assumed).
T6 construct: whole, on cells; also called HEK293-CXCR4
The experiment in a line: FACS on HEK293-CXCR4 cells.

Test [11] has as its target T1, human CCR7. The experiment in a line: ELISA on CCR7-expressing VLPs, pH 7.4 buffer.
Another test addresses T7, cynomolgus monkey CCR7 (cynomolgus monkey, UniProt P32248 25-378 (human entry)).
T7 construct: also called Cyno CCR7; NIH3T3.cyno CCR7
T7 sequence: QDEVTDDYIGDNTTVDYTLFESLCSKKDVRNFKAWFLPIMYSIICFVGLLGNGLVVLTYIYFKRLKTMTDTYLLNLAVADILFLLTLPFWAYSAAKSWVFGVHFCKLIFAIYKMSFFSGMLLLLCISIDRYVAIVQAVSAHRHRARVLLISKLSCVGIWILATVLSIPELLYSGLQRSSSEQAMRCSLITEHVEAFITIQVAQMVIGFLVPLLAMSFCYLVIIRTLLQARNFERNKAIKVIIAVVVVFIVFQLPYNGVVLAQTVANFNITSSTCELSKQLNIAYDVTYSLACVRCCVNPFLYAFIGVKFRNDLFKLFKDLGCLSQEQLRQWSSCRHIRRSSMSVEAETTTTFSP
The experiment in a line: FACS titration, cynomolgus CD4+ T cells.

T6 sequence (P61073 whole entry): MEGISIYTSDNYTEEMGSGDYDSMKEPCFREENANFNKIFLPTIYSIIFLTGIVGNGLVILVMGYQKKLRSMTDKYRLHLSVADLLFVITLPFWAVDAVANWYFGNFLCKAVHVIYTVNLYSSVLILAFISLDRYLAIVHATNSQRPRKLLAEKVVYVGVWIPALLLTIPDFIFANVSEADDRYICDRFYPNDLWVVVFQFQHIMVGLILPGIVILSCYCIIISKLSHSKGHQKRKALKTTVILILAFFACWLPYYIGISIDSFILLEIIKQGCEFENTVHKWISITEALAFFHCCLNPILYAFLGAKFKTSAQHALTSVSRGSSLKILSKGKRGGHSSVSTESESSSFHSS
T5 sequence (P51685 whole entry): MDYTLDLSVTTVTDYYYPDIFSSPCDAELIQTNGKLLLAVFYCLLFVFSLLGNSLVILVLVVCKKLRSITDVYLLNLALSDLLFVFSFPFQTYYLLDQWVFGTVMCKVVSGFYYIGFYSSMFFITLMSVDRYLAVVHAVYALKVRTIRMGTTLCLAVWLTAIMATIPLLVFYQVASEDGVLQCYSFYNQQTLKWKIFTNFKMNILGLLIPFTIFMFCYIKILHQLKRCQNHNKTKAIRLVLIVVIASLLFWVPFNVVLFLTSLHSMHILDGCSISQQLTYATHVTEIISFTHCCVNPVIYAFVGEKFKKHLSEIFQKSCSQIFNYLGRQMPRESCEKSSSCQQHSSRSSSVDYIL

B1: Humanized 121G12.CysMab.DAPA (antibody, human IgG1, kappa)
heavy: EVQLVESGGGLVKPGGSLRLSCAASGFTFSTYAMSWVRQAPGKGLEWVATISDAGSYSYYPDNVKGRFTISRDNAKNSLYLQMNSLRAEDTAVYYCARRGSRYEEYYVMDYWGQGTTVTVSSASTKGPSVFPLAPSSKSTSGGTAALGCLVKDYFPCPVTVSWNSGALTSGVHTFPAVLQSSGLYSLSSVVTVPSSSLGTQTYICNVNHKPSNTKVDKRVEPKSCDKTHTCPPCPAPELLGGPSVFLFPPKPKDTLMISRTPEVTCVVVAVSHEDPEVKFNWYVDGVEVHNAKTKPREEQYNSTYRVVSVLTVLHQDWLNGKEYKCKVSNKALAAPIEKTISKAKGQPREPQVYTLPPSREEMTKNQVSLTCLVKGFYPCDIAVEWESNGQPENNYKTTPPVLDSDGSFFLYSKLTVDKSRWQQGNVFSCSVMHEALHNHYTQKSLSLSPGK
light: EIVLTQSPATLSVSPGERVTLSCRASQSISNNLHWYQQKPGQAPRLLIKYASQSISGIPARFSGSGSGTDFTLTISSVEPEDFGVYFCQQSSSWLTFGQGTKLEIKRTVAAPSVFIFPPSDEQLKSGTASVVCLLNNFYPREAKVQWKVDNALQSGNSQESVTEQDSKDSTYSLSSTLTLSKADYEKHKVYACEVTHQGLSSPVTKSFNRGEC
notes: Human IgG1 kappa with D265A/P329A and CysMab cysteines; also called 121G12 (Humanized CysMab, DAPA)
B1: the half-maximal effective concentration (EC50) with human CCR7 [1] is roughly 30 nM. In addition, in the test with human CCR7 [2], the midpoint of the response, the EC50, lay at 1.78 nM. Also, in the test with human CCR7 [3], the “pHrodo (6 h MFI), internalization, CD4+ T cells (receptor numbers 2000)” value is 278 MFI; the “pHrodo (6 h MFI), internalization, CMLT1 cells (receptor numbers 19583)” value is 301 MFI; the “pHrodo (6 h MFI), internalization, DEL cells (receptor numbers 110685)” value stood at 1910 MFI; the “pHrodo (6 h MFI), internalization, JVM3 cells (receptor numbers 8717)” value amounted to 148 MFI. For the same molecule, in the test with human CCR7 [3], the “pHrodo (6 h MFI), internalization, Jeko-1 cells (receptor numbers 28852)” value came out at 450 MFI; the “pHrodo (6 h MFI), internalization, KE97 cells (receptor numbers 152093)” value amounted to 1570 MFI; the “pHrodo (6 h MFI), internalization, L540 cells (receptor numbers 167549)” value is 6840 MFI; the “pHrodo (6 h MFI), internalization, L1236 cells (receptor numbers 61602)” value is 1240 MFI. Besides, in the test with human CCR7 [3], the “pHrodo (6 h MFI), internalization, MJ cells (receptor numbers 111121)” value was found to be 1650 MFI; the “pHrodo (6 h MFI), internalization, MOTN1 cells (receptor numbers 84200)” value is 1030 MFI; the “pHrodo (6 h MFI), internalization, Mec2 cells (receptor numbers 50840)” value is 1340 MFI. In [4], the “EC50 (read off the curve)” value is roughly 0.6 nM. The dissociation constant (Kd) in [5] is 0.677 nM. Also, the EC50 in the test with human CCR7 [6] came out at 2.5 nM.

B2: 121G12.DAPA.sSPDB.DM4 (antibody, human IgG1, kappa)
heavy: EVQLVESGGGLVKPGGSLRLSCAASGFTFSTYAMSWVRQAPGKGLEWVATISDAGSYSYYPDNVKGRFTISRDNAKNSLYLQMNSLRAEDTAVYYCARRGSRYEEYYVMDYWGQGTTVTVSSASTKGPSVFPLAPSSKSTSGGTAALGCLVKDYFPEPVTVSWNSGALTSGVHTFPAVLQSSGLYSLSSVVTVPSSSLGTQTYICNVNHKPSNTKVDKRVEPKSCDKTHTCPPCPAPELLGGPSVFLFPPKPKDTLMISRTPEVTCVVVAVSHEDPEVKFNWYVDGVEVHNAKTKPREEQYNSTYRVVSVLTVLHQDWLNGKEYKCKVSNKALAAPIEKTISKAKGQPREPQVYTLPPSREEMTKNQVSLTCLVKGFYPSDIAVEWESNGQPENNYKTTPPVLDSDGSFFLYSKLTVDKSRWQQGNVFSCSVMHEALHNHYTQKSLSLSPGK
light: EIVLTQSPATLSVSPGERVTLSCRASQSISNNLHWYQQKPGQAPRLLIKYASQSISGIPARFSGSGSGTDFTLTISSVEPEDFGVYFCQQSSSWLTFGQGTKLEIKRTVAAPSVFIFPPSDEQLKSGTASVVCLLNNFYPREAKVQWKVDNALQSGNSQESVTEQDSKDSTYSLSSTLTLSKADYEKHKVYACEVTHQGLSSPVTKSFNRGEC
modifications: sulfo-SPDB-DM4 on endogenous lysines (sites not defined, may also be on the light chain); DAR 3.6 in Example 4B, DAR 3.9 in Tables 20 and 21
notes: also called 121G12.sSPDB.DM4
B2 came in with a concentration giving a half-maximal response (EC50) in the test with human CCR7 [7] of 8.42 nM. Besides, in the test with human CCR7 [8], the “difference of geometric mean fluorescence intensity from the unconjugated antibody” value is no more than 20%. Besides, in the test with human CCR7 [9], the “ADC activity in cell viability assay; IC50 (nM); DEL cells” value came out at 2.98 nM, the “ADC activity in cell viability assay; IC50 (nM); KE97 cells” value amounted to 3.18 nM and the “ADC activity in cell viability assay; IC50 (nM); L540 cells” value worked out at 3.9 nM.

B3: 674J13 humanized CysMab (Fc Wild Type) (antibody, V domains shown)
VH: DVQLQESGPGLVKPSQTLSLTCTVSGYSITSGYSWHWIRQHPGKGLEWMAHIHSSGSTNYNPSLKSRITISRDTSKNQFSLKLSSVTAADTAVYYCARGGVQAFAYWGQGTLVTVSS
VL: EIVLTQSPATLSASPGERVTMSCSASSSVIYMHWYQQKPGQAPRRWIYDTSKLASGVPARFSGSGSGTDYTLTISSMEPEDAAVYYCQQWSSNPLTFGQGTKLEIK
notes: Human IgG1 kappa with CysMab cysteines; also called Humanized CysMab antibody 674J13
For the molecule B3, the binding result with CCR6, with CCR9, with CCR8 and with CXCR4 was “no binding (tested: 5 ug/ml)” in each case. Moreover, the Kd with human CCR7 [10] is 0.166 nM; with human CCR7 [11] it was 0.0162 nM. The molecule further gave an EC50 with cynomolgus monkey CCR7 of 0.5 nM.
